Test results as given in paper PMC8244488 (Current Research in Structural Biology, 2021).
No end group written: not given here.

T1: human Shank1 PDZ (652-765), GST tag removed (human, UniProt Q9Y566 652-765)
T1 sequence: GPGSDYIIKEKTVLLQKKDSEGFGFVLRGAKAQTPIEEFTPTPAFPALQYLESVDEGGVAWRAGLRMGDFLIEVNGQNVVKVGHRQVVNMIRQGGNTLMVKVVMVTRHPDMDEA

B1: ARAP3_(1414-1429) peptide (peptide)
peptide: FPELIQDTSTSFSTTR
modifications: also: FITC label, position not given here
B2: human Shank1 PDZ (652-765), GST tag removed (domain or fragment)
chain: T1 sequence

How the values were obtained:
[1] = biological target: T1, human Shank1 PDZ (652-765), GST tag …; test: fluorescence polarisation
[2] = biological target: C-terminally truncated ARAP3 peptide (human); test: fluorescence polarisation

Row | Binder | binding result [1] | fold change in affinity against ARAP3 (1414-1429) [2] [fold]
1 | B1 | binds | –
2 | B2 | – | 2.5
